B1: ABHD5-luciferase(N) (alpha-beta hydrolase domain-containing 5, wild type) [mouse] / PLIN1-luciferase(C) (perilipin 1) [not stated] (parent)
chain 1: MKAMAAEEEVDSADAGGGSGWLTGWLPTWCPTSTSHLKEAEEKMLKCVPCTYKKEPVRISNGNRIWTLMFSHNISSKTPLVLLHGFGGGLGLWALNFEDLSTDRPVYAFDLLGFGRSSRPRFDSDAEEVENQFVESIEEWRCALRLDKMILLGHNLGGFLAAAYSLKYPSRVSHLILVEPWGFPERPDLADQERPIPVWIRALGAALTPFNPLAGLRIAGPFGLSLVQRLRPDFKRKYSSMFEDDTVTEYIYHCNVQTPSGETAFKNMTIPYGWAKRPMLQRIGGLHPDIPVSVIFGARSCIDGNSGTSIQSLRPKSYVKTIAILGAGHYVYADQPEEFNQKVKEICHTVD
chain 2: MSMNKGPTLLDGDLPEQENVLQRVLQLPVVSGTCECFQKTYNSTKEAHPLVASVCNAYEKGVQGASNLAAWSMEPVVRRLSTQFTAANELACRGLDHLEEKIPALQYPPEKIASELKGTISTRLRSARNSISVPIASTSDKVLGATLAGCELALGMAKETAEYAANTRVGRLASGGADLALGSIEKVVEFLLPPDKESAPSSGRQRTQKAPKAKPSLVRRVSTLANTLSRHTMQTTAWALKQGHSLAMWIPGVAPLSSLAQWGASAAMQVVSRRQSEVRVPWLHNLAASQDESHDDQTDTEGEETDDEEEEEESEAEENVLREVTALPNPRGLLGGVVHTVQNTLRNTISAVTWAPAAVLGTVGRILHLTPAQAVSSTKGRAMSLSDALKGVTDNVVDTVVHYVPLPRLSLMEPESEFRDIDNPSAEAERKGSGARPASPESTPRPGQPRGSLRSVRGLSAPSCPGLDDKTEASARPGFLAMPREKPARRVSDSFFRPSVMEPILGRAQYSQLRKKS
B2: ABHD5-luciferase(N) (alpha-beta hydrolase domain-containing 5, wild type) [mouse] / PLIN5-luciferase(C) (perilipin 5) [mouse] (parent)
chain 1: B1 chain 1
chain 2: MDQRGEDTTLAPHSRMSGDQTAQDPGSSLGELDQQNVVNRVVALPLVKATCTAVSSAYNSAKDRHPLLGSACRLAEHCVCSVTTCALDHAQPLLEHLQPQLATVNDLACRGLDKLEEKLPFLQQPSDMVVTSAKDTVAKSVTGMVDLAQRGRRWSGELRRSMSQAMDMVLGKSEKLVDRFLPMTEAELAVLAAEAEGPEVGTVEEQRQQQGYFVRLGSLSARLRHLAYEHSLGKLRQSKHRTQEMLAQLQETLELIQHMQRGASPSPTFHPPKTQELWGSWSPCLENGRSHSEVELETLALSRSLTLELQNAVDALAGCVRGLPPSAQAKVAEVQRSVDALQATFADAHCLGDVAPTALAEGRGSVARAHACVDEFLDLVLRAMPLPWLVGPFAPILVEQSEPLINLATCVDEVVGDPDPRWAHMDWPAQKRAWEAESADPGGQEAEPPRGQGKHTMMPELDF

Variants of: B1
Test: luciferase protein complementation analysis, SR4995 dose-response
Settings: with PLIN1-luciferase(C) (perilipin 1); SR4995 titrated from 1e-8.5 to 1e-4 M; mean ± SD; read off a plot
chain 1 MKAMAAEEEVDSADAGGGSGWLTGWLPTWCPTSTSHLKEAEEKMLKCVPCTYKKEPVRISNGNRIWTLMFSHNISSKTPLVLLHGFGGGLGLWALNFEDLSTDRPVYAFDLLGFGRSSRPRFDSDAEEVENQFVESIEEWRCALRLDKMILLGHNLGGFLAAAYSLKYPSRVSHLILVEPWGFPERPDLADQERPIPVWIRALGAALTPFNPLAGLRIAGPFGLSLVQRLRPDFKRKYSSMFEDDTVTEYIYHCNVQTPSGETAFKNMTIPYGWAKRPMLQRIGGLHPDIPVSVIFGANSCIDGNSGTSIQSLRPKSYVKTIAILGAGHYVYADQPEEFNQKVKEICHTVD [chain 1 R299N] showed an IC50 (log10 M (log[SR4995])) of -6.7. chain 1 MKAMAAEEEVDSADAGGGSGWLTGWLPTWCPTSTSHLKEAEEKMLKCVPCTYKKEPVRISNGNRIWTLMFSHNISSKTPLVLLHGFGGGLGLWALNFEDLSTDRPVYAFDLLGFGRSSRPRFDSDAEEVENQFVESIEEWRCALRLDKMILLGHNLGGFLAAAYSLKYPSRVSHLILVEPWGFPERPDLADQERPIPVWIRALGAALTPFNPLAGLRIAGPFGLSLVQRLRPDFKRKYSSMFEDDTVTEYIYHCNVQTPSGETAFKNMTIPYGWAKRPMLQRIGGLHPDIPVSVIFGARSCIDGNSGTSIQSLRPKSYVKTIAILGASHYVYADQPEEFNQKVKEICHTVD [chain 1 G328S] gave an IC50 (log10 M (log[SR4995])) of -6.8.

Variants of: B2
Test: as above
Settings: with PLIN5-luciferase(C) (perilipin 5) [mouse]; SR4995 titrated from 1e-8.5 to 1e-4 M; mean ± SD; read off a plot
For chain 1 MKAMAAEEEVDSADAGGGSGWLTGWLPTWCPTSTSHLKEAEEKMLKCVPCTYKKEPVRISNGNRIWTLMFSHNISSKTPLVLLHGFGGGLGLWALNFEDLSTDRPVYAFDLLGFGRSSRPRFDSDAEEVENQFVESIEEWRCALRLDKMILLGHNLGGFLAAAYSLKYPSRVSHLILVEPWGFPERPDLADQERPIPVWIRALGAALTPFNPLAGLRIAGPFGLSLVQRLRPDFKRKYSSMFEDDTVTEYIYHCNVQTPSGETAFKNMTIPYGWAKRPMLQRIGGLHPDIPVSVIFGARSCIDGNSGTSIQSLRPKSYVKTIAILGASHYVYADQPEEFNQKVKEICHTVD [chain 1 G328S], the IC50 (log10 M (log[SR4995])) was -7.2. With chain 1 MKAMAAEEEVDSADAGGGSGWLTGWLPTWCPTSTSHLKEAEEKMLKCVPCTYKKEPVRISNGNRIWTLMFSHNISSKTPLVLLHGFGGGLGLWALNFEDLSTDRPVYAFDLLGFGRSSRPRFDSDAEEVENQFVESIEEWRCALRLDKMILLGHNLGGFLAAAYSLKYPSRVSHLILVEPWGFPERPDLADQERPIPVWIRALGAALTPFNPLAGLRIAGPFGLSLVQRLRPDFKRKYSSMFEDDTVTEYIYHCNVQTPSGETAFKNMTIPYGWAKRPMLQRIGGLHPDIPVSVIFGANSCIDGNSGTSIQSLRPKSYVKTIAILGAGHYVYADQPEEFNQKVKEICHTVD [chain 1 R299N] the IC50 (log10 M (log[SR4995])) was -6.5.
